What was measured:
cleaved-AREG peptide = molecular target: T1, cleaved-AREG peptide (Homo sapiens, UniProt P15514); assay: ELISA binding of 1A3 and 1A3-VC-PAB-MMAE to cleaved-AREG peptide; details: 0.001-1 μg/mL
T1 construct: host or cells: synthetic peptide
Method: Maxisorp flat bottom 96-well plates (Thermo Fisher Scientific) were coated with 5 μg/mL cleaved-AREG peptide at 4° C. overnight. After washing thrice with PBST (PBS with 0.05% Tween20) and blocking for 2 h at RT with 5% non-fat dry milk in PBST, various concentrations of 1A3 and 1A3-VC-PAB-MMAE (0.001, 0.01, 0.1, 1 μg/mL) were added to the wells and incubated for 2 h at RT. The wells were washed four times with PBST and were incubated at RT with Goat anti-rabbit IgG (H+L) Cross-adsorbed-HRP conjugate secondary Ab (ThermoFisher G-21234) for 1 h. One-Step™ Turbo™ B-ELISA Substrate Solution (Thermo Fisher Scientific) was added to the wells for color development, incubated for 15 min and the reaction was stopped by adding 2 M H2SO4.

[1] = molecular target: T2, Trunc AREG (fragment that remains cell-bound after cleavage by ADAM17) (Homo sapiens, UniProt P15514); assay: Immunoblot of TRF-conjugated AREG peptides, cleaved mimic; type: binding; details: 1 μg/mL antibody, 200 ng TRF-conjugated peptide
T2 construct: host or cells: synthetic peptide conjugated to transferrin
Method: (§1) Monomethyl auristatin E (MMAE) conjugated 1A3 antibody (1A3-VC-PAB-MMAE) was prepared using a kit (CM11409) from CellMosaic Inc. (Woburn, MA, USA) following the manufacturer's instructions. Maleimide-activated valine-citrulline p-aminobenzylcarbamate (VCPAB) MMAE was coupled directly to the antibody after reduction through alkylation.^13 The specificity of 1A3 and 1A3-VC-PAB-MMAE to peptides representing human cleaved-AREG was confirmed by immunoblotting. Briefly, transferrin (TRF) conjugated peptides representing cleaved and uncleaved AREG (200 ng) were electrophoresed on SDS-PAGE gels, transferred to PVDF membrane and probed with 1 μg/mL of 1A3 and 1A3-VC-PAB-MMAE. Horseradish peroxidase-conjugated goat anti-rabbit IgG was used. Antibody binding was detected with enhanced chemiluminescence (ECL; Amersham, Arlington Heights, IL, USA). Furthermore, the characterization and purity of 1A3-VC-PAB-MMAE were analyzed using hydrophobic interaction chromatography (HIC) and size-exclusion chromatography (Cell Mosaic).

[2] = molecular target: T3, FL AREG (peptide representing uncleaved AREG) (Homo sapiens, UniProt P15514); assay: Immunoblot of TRF-conjugated AREG peptides, intact cleavage site; type: binding; details: 1 μg/mL antibody, 200 ng TRF-conjugated peptide
T3 construct: a peptide spanning this region (SMKTHSMIDSSLSKIAC); host or cells: synthetic peptide conjugated to transferrin
Method: as §1

MCF7 cells = assay: Clonogenic assay; type: cell-based, human; details: MCF7, 25 or 50 nM, 72 h then 14 days
Method: (§2) MCF7 breast cancer cells were plated in 48-well plates, allowed to attach overnight and treated with 12.5, 25 or 50 nM of 1A3-VC-PAB-MMAE for 72 h. A vehicle treated well served as control. After removing the ADC-containing medium, cells were washed using PBS, trypsinized and plated at a density of 1000 cells/well in 12-well plates. The cells were cultured for 14 days, with fresh medium addition every 3 days. The colonies were stained with 0.5% crystal violet solution. The number of colonies per well was counted.

MCF7-F cells = assay: Clonogenic assay; type: cell-based, human; details: 25 or 50 nM, 72 h then 14 days
Method: as §2

MCF-7 cells = assay: Tubulin staining (microtubule integrity); type: cell-based, human; details: 48 h treatment
Method: FIGS. 4A-4E. In vitro 1A3-MMAE cytotoxicity in MCF-7 (FIG. 4A) and MCF-7F (FIG. 4B) cells measured by MTT assay after treatment with 1A3-MMAE, 1A3 or MMAE. FIG. 4C: Clonogenic growth of MCF-7 or MCF-7F cells after exposure to 1A3-MMAE and replating. FIG. 4D: The quantification of clonogenic growth assays in FIG. 4C. (FIG. 4E). Tubulin staining of MCF-7 cells after 48 h treatment with MMAE, 1A3, 1A3-MMAE (40× magnification).

MCF7 xenografts = assay: Orthotopic MCF7 breast cancer xenograft in NSG mice; type: in vivo, mouse
Description: (§3) In Vivo Antitumor Activity Studies: The animal experiments were approved by the Institutional Animal Care and Use Committee of University of Wisconsin La Crosse (La Crosse, Wisconsin, USA). Four-week-old female NOD.Cg-Prkdc^scid II2rg^tm1Wjl/SzJ mice (NSG; The Jackson Laboratory) were acclimated for 1 week before the experiments. For MCF7 breast cancer xenograft model, the mice were implanted subcutaneously with 0.72-mg 17β-estradiol 90-day release tablets (Innovative Research of America) 3 days prior to cell injection. […] Firefly luciferase expressing MCF7 and MCF7-F cells (2×10^6 cells in a 1:1 mixture of serum-free DMEM and Matrigel) were injected orthotopically into the fourth inguinal mammary fat pad of each mouse. Once the tumors were well established, each cell line cohort was divided into three groups (n=5). Mean tumor volume at the start of treatment was 111 mm^3 for the MCF7 cohorts and 119 mm^3 for the MCF7-F cohorts. The mice were treated by intraperitoneal injection every 4 days for a total of six doses with unconjugated or MMAE conjugated anti-cleaved-AREG 1A3 antibody (5 mg/kg), or vehicle control (PBS). Tumor volumes were calculated from caliper data by using the formula: Volume (mm^3)=(Length×Width^2)/2. Mice were imaged weekly with the in vivo FX PRO imaging system (Carestream Molecular Imaging, Woodbridge, CA, USA) after injecting luciferin (150 mg/kg body weight). Tumor volume and body weight were monitored once a week. Statistical Analysis:
(§4) To test in vivo efficacy of 1A3-MMAE, human breast cancer cell lines expressing luciferase were injected orthotopically into NSG mice (one tumor in each inguinal mammary gland). Once the average tumor size reached approximately 100-125 mm^3, mice were randomized to one of three treatment groups: PBS, 1A3 (5 mg/kg) or 1A3-MMAE (5 mg/kg). Mice received intraperitoneal injections every 4 days for six total injections and were monitored for tumor progression or regression. Similar experiments were performed with MCF7 (FIGS. 5A, 5B, and 5C, left panels) and MCF7-F (FIGS. 5A, 5B, and 5C, right panels) xenografts.

MCF7-F xenografts = assay: Orthotopic MCF7-F endocrine-resistant xenograft in NSG mice; type: in vivo, mouse
Description: as §3, §4

MCF7 breast cancer cells = assay: MTT cytotoxicity assay; details: MCF7, 1.56-200 nM, 72 h
Method: (§5) The cells were seeded at a density of 5000 cells/well in 96-well plates. Approximately 24 h after cell seeding, the cells were treated with varying doses (1.56, 3.125, 6.25, 12.5, 25, 50, 100 and 200 nM) of MMAE, 1A3 and 1A3-VC-PAB-MMAE. Untreated cells were used as control. After incubating for 72 h, the medium was aspirated and 50 μL of serum-free media and 50 μL of MTT solution (5 mg/mL solution in PBS) was added into each well; the cells were then incubated for 3 h at 37° C. The formazan crystals formed were dissolved with 4 mM HCl, 0.1% NP40 in isopropanol. The absorbance was measured at 590 nm using VersaMax Microplate Reader (Molecular Devices LLC, San Jose, California, USA). The assays were performed in triplicate.

[3] = tested on: MCF7-F (fulvestrant-resistant MCF7) breast cancer cells; assay: MTT cytotoxicity assay; details: 1.56-200 nM, 72 h
Method: as §5

B1: 1A3-MMAE: Monomethyl auristatin E (MMAE) conjugated 1A3 antibody via valine-citrulline p-aminobenzylcarbamate linker (conjugate)
VH: QSVKESEGRLVTPGTPLRLTCTVAGYSLSRYHMCWVRQAPGKGLEWIGMIGGSGRTDYASWAKGRFTISKTSTTVDLKITSPTTEDTATYFCSTVYTDSDGDFWGPGTLVTVSS
VL: AELDMTQTPSSKSVPVGGTVTINCQASESVYSNDRLAWFQQKPGQPPKLLIYYASTLASGVPSRFKGSGSGTQFTLTISDLECADAATYYCQSCYDMSSYGVAFGGGTELEIL
- binding to cleaved AREG peptide, unconjugated vs MMAE-conjugated (cleaved-AREG peptide): no substantial difference in binding
- recognition of truncated AREG peptide by immunoblot [1]: specifically recognized
- reaction with peptide representing uncleaved AREG by immunoblot [2]: did not react
- clonogenic survival (number of colonies relative to control) (MCF7 cells): dose-dependent effect on survival
- clonogenic survival (number of colonies relative to control) (MCF7-F cells): dose-dependent effect on survival
- tubulin disruption (microtubule integrity) (MCF-7 cells): exhibited tubulin disruption
- longitudinal luciferase imaging of xenografts (MCF7 xenografts; MCF7, 5 mg/kg): decreased in both volume and signal
- xenografts in which tumor volume decreased (maximum response) (MCF7 xenografts; MCF7, 5 mg/kg): 8/10
- xenografts in which tumor volume increased (maximum response) (MCF7 xenografts; MCF7, 5 mg/kg): 2/10
- tumor volume response by caliper measurements (MCF7 xenografts; MCF7, 5 mg/kg i.p. every 4 days, six doses): strong tumor shrinkage
- longitudinal luciferase imaging of xenografts (MCF7-F xenografts; 5 mg/kg): decreased in both volume and signal
- tumor volume response by caliper measurements (MCF7-F xenografts; 5 mg/kg i.p. every 4 days, six doses): strong tumor shrinkage
- xenografts cleared to sub-detectable levels (MCF7-F xenografts; 5 mg/kg, 10 xenografts): 10
- tumors recurred after follow-up (MCF7-F xenografts; 5 mg/kg, 204-day follow-up period): 10/10
- tumors returned to a size seen prior to treatment (MCF7-F xenografts; 204-day follow-up): only one tumor
- re-appearance of a lesion after the end of dosing (representative animal) (MCF7-F xenografts; luciferase imaging): 70 days
- cytotoxicity by MTT assay (MCF7 breast cancer cells): considerable cytotoxicity
- cytotoxicity by MTT assay [3]: considerable cytotoxicity

Reference: US12043671B2, “Antibodies targeting an amphiregulin-derived cell surface neo-epitope” (Gundersen Lutheran Medical Foundation, Inc., priority 2021, dated 2024)
